The target of assay [1] is human OX40 expressed on HEK293A cells (human) (UniProt P43489). Put plainly: FACS on HEK293A/huOX40 cells, MFI.
The target of assay [2] is recombinant rhesus OX40-his (Sino Biological, Cat#:90846-C08H) (rhesus monkey). Put plainly: ELISA on coated rhesus OX40-His, OD450.
For assay [3], the target named is recombinant human OX40-his (Sino Biological, Cat#:10481-H03H) (human) (UniProt P43489). Put plainly: ELISA on coated human OX40-His, OD450. A general note: In an ELISA, binding on a coated surface is turned into a signal by an enzyme label.
For assay [4] the target is unchanged. The assay can be described thus: ELISA, coated hOX40-his.
Assay [5] concerns the target human OX40-CD40 fusion protein on HEK-Blue reporter cells (human). Put plainly: cell-based or functional assay.
The target of assay [6] is recombinant human OX40-his (Sino Biological, Cat#:10481-H03H) (human) (UniProt P43489). Put plainly: SPR Biacore 8K, OX40-His on chip, antibody injected. A general note: In SPR one partner is held on a chip, and binding of the other changes the refractive index at the surface.
Assay [7] deals with rhesus OX40 expressed on HEK293A cells (rhesus). The assay can be described thus: FACS on HEK293A/rhOX40 cells, MFI.
Assay [8] concerns the target recombinant rhesus OX40-his (Sino Biological, Cat#:90846-C08H) (rhesus monkey). The assay can be described thus: ELISA, coated rhOX40-his.
The target of assay [9] is human OX40 expressed on HEK293A cells (human) (UniProt P43489). The assay can be described thus: FACS on HEK293A cells.
Assay [10] concerns the target rhesus OX40 expressed on HEK293A cells (rhesus). Put plainly: FACS on HEK293A cells.

Sequence of human OX40 expressed on HEK293A cells (human) (P43489 29-277 limits assumed): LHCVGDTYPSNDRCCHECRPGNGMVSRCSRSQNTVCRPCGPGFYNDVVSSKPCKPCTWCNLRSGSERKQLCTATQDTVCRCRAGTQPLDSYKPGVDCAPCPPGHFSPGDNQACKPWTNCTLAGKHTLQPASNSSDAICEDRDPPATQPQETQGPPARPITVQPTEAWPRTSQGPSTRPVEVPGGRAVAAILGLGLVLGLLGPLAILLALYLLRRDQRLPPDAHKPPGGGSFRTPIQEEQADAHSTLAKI
Sequence of rhesus OX40 expressed on HEK293A cells (rhesus) (P43489 other isoform, or with tags, fused parts or gaps limits assumed): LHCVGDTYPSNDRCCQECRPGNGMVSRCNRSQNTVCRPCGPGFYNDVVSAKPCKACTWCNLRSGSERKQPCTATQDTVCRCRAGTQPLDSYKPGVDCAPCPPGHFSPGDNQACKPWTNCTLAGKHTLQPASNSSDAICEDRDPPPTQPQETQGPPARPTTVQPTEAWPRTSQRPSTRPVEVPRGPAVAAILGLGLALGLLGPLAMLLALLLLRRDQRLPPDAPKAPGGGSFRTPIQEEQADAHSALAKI
Sequence of recombinant rhesus OX40-his (Sino Biological, Cat#:90846-C08H) (rhesus monkey) (P43489 other isoform, or with tags, fused parts or gaps C08H C08H limits assumed): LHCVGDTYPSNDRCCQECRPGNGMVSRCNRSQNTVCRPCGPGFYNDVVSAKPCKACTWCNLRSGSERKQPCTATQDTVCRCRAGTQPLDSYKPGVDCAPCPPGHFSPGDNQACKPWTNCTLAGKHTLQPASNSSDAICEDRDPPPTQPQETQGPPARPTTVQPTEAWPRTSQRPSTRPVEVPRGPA
Sequence of recombinant human OX40-his (Sino Biological, Cat#:10481-H03H) (human) (P43489 29-214 limits assumed): as the sequence (P43489 other isoform, or with tags, fused parts or gaps C08H C08H limits assumed) above, with Q16H, N29S, A50S, A55P, P70L, P145A, T159I, R173G, R183G, P185R counted along it
Sequence of human OX40-CD40 fusion protein on HEK-Blue reporter cells (human) (chain, as listed by the source limits assumed): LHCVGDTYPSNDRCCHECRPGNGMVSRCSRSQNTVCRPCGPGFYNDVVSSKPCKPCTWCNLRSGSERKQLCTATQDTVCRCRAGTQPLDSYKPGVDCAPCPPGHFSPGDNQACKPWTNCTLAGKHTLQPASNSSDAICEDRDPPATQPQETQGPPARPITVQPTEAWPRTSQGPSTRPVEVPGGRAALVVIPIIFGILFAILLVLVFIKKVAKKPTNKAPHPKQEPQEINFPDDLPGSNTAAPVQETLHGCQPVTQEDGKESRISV

B1: MEDI0562 (antibody, INN chains, looked up, V domains shown)
VH: QVQLQESGPGLVKPSQTLSLTCAVYGGSFSSGYWNWIRKHPGKGLEYIGYISYNGITYHNPSLKSRITINRDTSKNQYSLQLNSVTPEDTAVYYCARYKYDYDGGHAMDYWGQGTLVTVSS
VL: DIQMTQSPSSLSASVGDRVTITCRASQDISNYLNWYQQKPGKAPKLLIYYTSKLHSGVPSRFSGSGSGTDYTLTISSLQPEDFATYYCQQGSALPWTFGQGTKVEIK
The term EC50 (read off the curve) denotes the concentration at which the effect is half-maximal. In general, EC50 refers to the concentration giving half of the maximal effect. What is called Kd is the free concentration of one partner at which half of the binding sites on the other are occupied at equilibrium, for simple one-to-one binding. The koff is the rate constant with which the complex falls apart. As usually defined, the kon is a measure of how fast the partners come together. For B1, the EC50 (read off the curve) was determined as 0.3 µg/mL in assay [1], 0.003 µg/mL in [2], 0.003 µg/mL in [3] and 0.3 µg/mL in assay [7]. Also, the 50% effective concentration (EC50) in assay [4] is 0.0651 µg/mL; in assay [8], 0.0546 µg/mL; in assay [9] it was 0.0935 µg/mL; in assay [10] it was 0.088 µg/mL. The molecule further had an EC50, agonistic activity in HEK-Blue assay in assay [5] of 0.31 µg/mL. Further, the Kd in [6] stood at 1.79 nM. Moreover, the koff in assay [6] came to 0.000154 s⁻¹. Besides, the kon in assay [6] came to 86300 M⁻¹ s⁻¹.

B2: RG7888 (antibody, INN chains, looked up, V domains shown)
VH: EVQLVQSGAEVKKPGASVKVSCKASGYTFTDSYMSWVRQAPGQGLEWIGDMYPDNGDSSYNQKFRERVTITRDTSTSTAYLELSSLRSEDTAVYYCVLAPRWYFSVWGQGTLVTVSS
VL: DIQMTQSPSSLSASVGDRVTITCRASQDISNYLNWYQQKPGKAPKLLIYYTSRLRSGVPSRFSGSGSGTDFTLTISSLQPEDFATYYCQQGHTLPPTFGQGTKVEIK
In the case of B2, the concentration giving a half-maximal response (EC50 (read off the curve)) in [2] and in assay [3] was 0.003 µg/mL each time. In addition, the concentration giving a half-maximal response (EC50) came to 0.0637 µg/mL in assay [4], 0.0668 µg/mL in assay [8], 0.134 µg/mL in assay [9] and 0.113 µg/mL in assay [10]. The EC50, agonistic activity in HEK-Blue assay in [5] is 0.121 µg/mL. In assay [6], the Kd was found to be 0.00549 nM. In [6], the dissociation rate constant (koff) was determined as 1.76e-06 s⁻¹. In assay [6], the association rate constant (kon) amounted to 322000 M⁻¹ s⁻¹.

Values taken from patent US10442866.
